One data set addresses T1, PrCpf1 (Pseudobutyrivibrio ruminis).
T1 chain: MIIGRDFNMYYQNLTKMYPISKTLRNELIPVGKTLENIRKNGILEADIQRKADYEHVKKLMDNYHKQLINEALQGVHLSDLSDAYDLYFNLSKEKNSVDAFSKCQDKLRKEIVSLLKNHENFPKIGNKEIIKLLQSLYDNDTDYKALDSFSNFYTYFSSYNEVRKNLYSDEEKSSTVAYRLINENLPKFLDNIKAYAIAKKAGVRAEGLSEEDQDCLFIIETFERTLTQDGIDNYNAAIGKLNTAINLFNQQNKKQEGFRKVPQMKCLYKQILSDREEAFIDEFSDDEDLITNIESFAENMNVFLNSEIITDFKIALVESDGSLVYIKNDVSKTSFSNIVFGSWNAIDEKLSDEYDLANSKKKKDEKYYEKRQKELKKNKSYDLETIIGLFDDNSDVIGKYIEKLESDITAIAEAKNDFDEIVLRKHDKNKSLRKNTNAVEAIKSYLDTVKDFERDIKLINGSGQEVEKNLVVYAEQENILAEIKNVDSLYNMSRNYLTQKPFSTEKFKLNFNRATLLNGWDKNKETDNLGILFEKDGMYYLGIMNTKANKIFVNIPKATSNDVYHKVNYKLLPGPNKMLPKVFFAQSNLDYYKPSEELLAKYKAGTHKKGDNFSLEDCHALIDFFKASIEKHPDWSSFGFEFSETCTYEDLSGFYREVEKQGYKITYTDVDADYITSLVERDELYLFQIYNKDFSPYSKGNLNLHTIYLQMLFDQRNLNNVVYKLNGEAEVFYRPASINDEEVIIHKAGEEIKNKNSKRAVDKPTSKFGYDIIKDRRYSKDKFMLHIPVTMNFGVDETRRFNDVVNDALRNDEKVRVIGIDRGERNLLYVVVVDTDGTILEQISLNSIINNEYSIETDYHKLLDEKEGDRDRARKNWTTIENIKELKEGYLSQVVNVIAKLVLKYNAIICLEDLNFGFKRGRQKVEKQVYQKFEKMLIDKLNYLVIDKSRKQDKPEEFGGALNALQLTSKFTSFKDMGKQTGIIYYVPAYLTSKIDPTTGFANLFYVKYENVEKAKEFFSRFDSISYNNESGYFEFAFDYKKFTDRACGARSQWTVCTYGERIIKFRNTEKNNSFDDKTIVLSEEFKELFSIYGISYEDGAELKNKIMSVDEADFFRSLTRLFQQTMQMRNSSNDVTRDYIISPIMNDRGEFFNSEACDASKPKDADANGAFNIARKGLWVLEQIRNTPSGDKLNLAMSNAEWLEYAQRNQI
Put plainly: cell_activity; PAM TTTC; (T)TTN; T7EI. The following applies: tags: HA (2A-eGFP vector). The procedure:
(§1) GFP-positive cells were sorted by FACS, lysed with Buffer L+ 1/100V Protease K (Biotool) at 55° C. for 30 min, inactivated at 95° C. for 5 min, and directly used for PCR detection. Appropriate primers were designed near the Cpf1 targeting site, and the amplified product was purified using DNA Clean & Concentrator™-5 kit (ZYMO Research). 200 ng of purified PCR product was added into 1 uL of NEBuffer2 (NEB) and diluted to 10 uL with ddH₂O. Then, heterodimers were formed by re-annealing according to the previously reported method (Li, W., et al., Simultaneous generation and germline transmission of multiple gene mutations in rat using CRISPR-Cas systems. Nat Biotechnol, 2013. 31(8): p. 684-6). The reannealed product was added with 0.3 uL of T7EI endnucelease and 1/10 V NEBuffer2 (NEB), and digested at 37° C. for 1 h 30 min. Genotype analysis was performed by 3% TAE-Gel electrophoresis. Indels were calculated according to the method reported in the previous article (Cong, L., et al., Multiplex genome engineering using CRISPR/Cas systems. Science, 2013. 339(6121): p. 819-23).
(§2) The cells were transfected with Cpf1, crRNA31, and crRNA2 plasmids, and it was confirmed by PCR and T7EI analysis that crRNA31 can increase the editing efficiency of five Cpf1s of ArCpf1, BsCpf1, HkCpf1, PrCpf1, and PxCpf1 at the site MeCP2-4 by two folds (FIG. 13B).

For the next data set, the target named is T2, PxCpf1 (Pseudobutyrivibrio xylanivorans).
T2 chain: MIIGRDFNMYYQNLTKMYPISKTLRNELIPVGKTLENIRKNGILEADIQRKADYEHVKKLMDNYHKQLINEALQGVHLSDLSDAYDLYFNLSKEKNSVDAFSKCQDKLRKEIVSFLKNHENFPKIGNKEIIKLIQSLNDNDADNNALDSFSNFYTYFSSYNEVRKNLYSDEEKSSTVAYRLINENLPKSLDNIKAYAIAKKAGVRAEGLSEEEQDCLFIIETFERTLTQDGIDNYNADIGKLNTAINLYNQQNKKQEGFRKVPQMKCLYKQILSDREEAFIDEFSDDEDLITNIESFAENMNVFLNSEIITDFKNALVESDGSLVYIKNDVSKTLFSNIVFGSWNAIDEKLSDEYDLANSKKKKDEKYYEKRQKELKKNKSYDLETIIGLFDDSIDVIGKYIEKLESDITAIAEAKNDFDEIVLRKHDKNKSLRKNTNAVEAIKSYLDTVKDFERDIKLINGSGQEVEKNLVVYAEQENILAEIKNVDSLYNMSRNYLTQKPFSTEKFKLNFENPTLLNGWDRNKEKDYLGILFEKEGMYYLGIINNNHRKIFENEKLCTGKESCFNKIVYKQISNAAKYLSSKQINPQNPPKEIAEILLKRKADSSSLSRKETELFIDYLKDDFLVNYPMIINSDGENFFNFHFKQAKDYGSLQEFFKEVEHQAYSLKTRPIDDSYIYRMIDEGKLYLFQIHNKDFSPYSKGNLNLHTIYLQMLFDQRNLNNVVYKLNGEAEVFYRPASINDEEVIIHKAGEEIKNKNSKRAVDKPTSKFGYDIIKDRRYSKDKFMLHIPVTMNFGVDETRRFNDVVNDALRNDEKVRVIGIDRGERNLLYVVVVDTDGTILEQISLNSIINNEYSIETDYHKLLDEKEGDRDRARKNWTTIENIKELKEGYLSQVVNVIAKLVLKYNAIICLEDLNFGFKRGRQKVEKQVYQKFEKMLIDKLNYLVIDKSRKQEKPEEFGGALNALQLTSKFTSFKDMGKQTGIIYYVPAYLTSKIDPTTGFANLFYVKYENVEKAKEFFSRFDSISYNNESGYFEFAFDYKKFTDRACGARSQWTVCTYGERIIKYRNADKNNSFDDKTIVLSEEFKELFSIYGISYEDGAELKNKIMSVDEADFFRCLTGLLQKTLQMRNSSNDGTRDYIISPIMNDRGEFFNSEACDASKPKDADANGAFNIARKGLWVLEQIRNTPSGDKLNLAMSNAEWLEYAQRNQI
Put plainly: cell_activity; PAM TTTC; (T)TTN; T7EI. The following applies: tags: HA (2A-eGFP vector). The procedure: as §1, §2

B1: crRNA31 MeCP2 site 4 ; Mouse MeCP2 site 4 (ssRNA ; dsDNA)
RNA: AUUUCUACUAUGGUAGAUGUGUCCAACCUUCAGGCAAGGUG
DNA 1: TTTCGTGTCCAACCTTCAGGCAAGGTG
DNA 2: CACCTTGCCTGAAGGTTGGACACGAAA
Turning to B1, the editing efficiency with PrCpf1 and with PxCpf1 was roughly 2 fold vs crRNA2 in each case.

For the origin of these results see patent US20200149021, “SYSTEM AND METHOD FOR GENOME EDITING” (INSTITUTE OF ZOOLOGY, CHINESE ACADEMY OF SCIENCES, published 2020).
